# Experiment: soluble on expression in E. coli; label from the status in PepcDB or PDB records
row,Sequence,soluble on expression in E. coli
1,MGSDKIHHHHHHMAFKNLKELSFEKSNYIKPKRFAYESNGRLCTWDFIESKDSVSVLLYHKELESFIFVRQFRIPLWYHQMHDKDYVKDDDMGYTIELCSGLVDKKLSLEEIAKEECIEELGYAPKNLEKIGDFYTGFGSGVSKQSFYFVEVDEKDKISSGGGVDDEEIEAVYVKVQDFEKKCKNMIRTPLLDFAYMWFLKEKWGKLKII,not soluble
2,GHQLPIWKQDEKSLTENDYYSFYKNTFKAYDDPLAYVHFNVEGQISFNSILYIPGSLPWELSKNMFDEESRGIRLYVKRVFINDKFSESIPRWLTFLRGIVDSENLPLNVGREILQKSKMLSIINKRIVLKSISMMKGLKETGGDKWTKFLNTFGKYLKIGVVEDKENQEEIASLVEFYSINSGDKKTDLDSYIENMKEDQKCIYYISGENKKTAQNSPSLEKLKALNYDVLFSLEPIDEFCLSSLTVNKYKGYEVLDVNKAD,soluble
3,MVKAISTEKDLLLKVDKSFPWETFRSKLKSLYSKKPKWNVISLLKVLLIKLIFDISWNNLEGEIRDSKMFMDFLGGKIPPKSTVFSFYKKLQQTVIQEGETMRTTLMDELNKALDKAISEYREKGFELEVGREKKTEKVSKGTYPPKIDTFLPVKPYPREKRSLSKTGSLEHHHHHH,soluble
4,MRISKMLVTELNIYPLKSARGIALKESAVSAEGLPGDRRAMLTDPSGHFITQRELPAIATVLARHEDGGMALSRERSGEIFARPSGQRMDVAVWKSIVSANIADDETNDTLSAWLGREVKLVFFDDAAKRIASLEWTGNETPVTFADGYQILVTTTASLAALNDNMRGNGEDAVGMERFRPNIVLETEEAWAEDRWAAIEIGGIRFDLVKPCARCIMTTQDQMTGSRDVPSPMKAMGRIRMSGDRRVPGPLFGWNVTPRGEGRLSVGDVARVVEERPEGWAIKRR,soluble
5,MGSDKIHHHHHHMANSIPSGGNAFALPFAGSRHQFISATCTPDTFSDCLSQSLPPSSNEQAPLGVLRLVVAVSNQKQIGTVLEQLTKDFQALLSRAEVVVQPPFSGQVQISAWLVDTAAIADAPAVIGSPAALQWLFSASNAHALDDTQVSPAFSRQFYDGLESAHAQGHMPDDLLRTWIYIGGITQGPHDETRYQRVNAARQDAFREVSIGMGALCSPFPASTGIGTHGSSLTLGMLSCKIRSGMRVVALENRRQTSAFQYPKEESLIAPLFSRAVAILGDAQAMVFVSGTASIIGAKSVHVGNIEQQTRQTLENINNLLSARLLSDYDCYPATSGLESIVSYTVYIKRREDITVVRAVCAALLPERAVATFVQADVCRTELLVEIEAVAVMPE,not soluble
6,MGSDKIHHHHHHMSINFDLNDLQAFRAVVENGSFRKAAESVRITQPALSRRIEKLESALNVKLFERTTRKVSLTTVGRAFLPQVERILDDLDIALMTIGEVGSTRMGSVTIACVPSAAYYFMPQVISAFREDYPKIRVKVLDASANEVNSAVALGEADFGVSFSGNLAPEVDFELLLQERYVMACRRDHSLAIRESVSWEEMYSHDYIALDITSGNRLVLDQALARSRPHKESICETRHVTTMIGLVEAGLGVAAVPSIAMPMTAHPFLVSVPLVEPEVIRNVGLIKRRGRTLTPAALELEQLVRKMPFRSAGN,not soluble
7,MRAIGLLEFKEITRGVYAADVMLKATPVELLLIDNICPGKLIVLIEGEVSAVKNAISRGKEVFSEGVIEEVVLTNPHPSLSTVFPRKKQSKKLNYNSIGIIETLSVSSAIKAADKAAKGANVEIIDIKIARFLGGKAIVVLGGEISAVKVAIDAGISAVQKGKLVSSTVVANINEKLLEMWV,soluble
8,MAKVCYFTGRKTSSGNNRSHAMNSTKRTVKPNLQKVRVLIDGKPKKVWVSTRALKSGKIERVLEHHHHHH,not soluble
9,MSLNEVHSIHGHTLLLITKPSLQATALLQHLKQSLAITGKLHNIQRSLDDISSGSIILLDMMEADKKLIHYWQDTLSRKNNNIKILLLNTPEDYPYRDIENWPHINGVFYAMEDQERVVNGLQGVLRGECYFTQKLASYLITHSGNYRYNSTESALLTHREKEILNKLRIGASNNEIARSLFISENTVKTHLYNLFKKIAVKNRTQAVSWANDNLREGHHHHHH,soluble
10,MSDSIQERYLVGYALAAKKQHSFIQPSLIEHSRQRGIDLVKLDPTKSLLEQGKLDCIIHKLYDVYWKENLHEFREKCPGVPVIDLPEAIERLHNRVSMLEVITQLRFPVSDSERFGVPEQVVVMDSSVLSGGGALGELKFPVIAKPLDADGSAKSHKMFLIYDQEGMKILKAPIVLQEFVNHGGVIFKVYVVGDHVKCVKRRSLPDISEEKIGTSKGSLPFSQISNLTAQEDKNIEYGEDRSLEKVEMPPLSFLTDLAKAMRESMGLNLFNFDVIRDAKDANRYLIIDINYFPGYAKMPSYEPVLTEFFWDMVTKKNHV,soluble
11,MKLTQLDLSHNNLSVIPTWALTYLHSLQILHLENNRIDVLRSNTFDETQLNNLQFLYLDNNQLRIIPNLAFNHLRLVVLMLANNRITEIQKMSLPQTLKFLVLRNNLLTQIPYVALNDLKTLQSIDLEGNNITHLMDTNEVTFESEMKVILRNNKVRRLDKHSFRSFRKIRELDISYNQIQTVEDSSFETVGHMQSLDLSYNRIAYLPRGMLKNFAKTLKTLKLAENMIHATPEALRDLRNLTHLNLNGNKLNRIDGDVLKGCTDTLVELFIANNYLEHIPHGVLSGMKQLEHLDISKNKIMSLKKPTSLLSITKEETSTVRRLNLAGNRINNMSDYLIFEHMPLLTYVDVSFNRIRFISPRVFEKLKNLESLFLQNNQLAHFPSLFRLDKLRHLMLDNNQIQKIDNFSLADLPKLQHLSLAGNQLDIITENMFGSSSSSELKSLNLAHNKIHSISSRSFSDLDNLQQLRLSHNNIRTITSMTFSNLRNLRYLDLSHNRIIKILPSALYQLPALDVLHLDHNNLNEIDRDAFRSFSDLQSLKLSHNAFRRFSCEFLGSISQVHQLDLSSNQINEIDIFCIARGIRKLSLASNSVEKINRKLLQDATELTSIDISHNGIIDVDSDAFCECRKLSHIKLSHNYIRNLWKGTRVCIPWISHLTTFCFFTKEHLERTISFSYIIVDSSQLTSFGNLSILSFANNKVDSIEDGAFENLLSLKILDLSNNPVTSWSPTAFRDLSHSISSINMANTGLFSMPKFSHRSIQSLNISCNKIYELSEKDLAPLTKVVALDISHNNLKQISSMAFEPLIHLKQLNVSANPITHLTNEHIQQLYKLYNIPDMARPYQISSILSNLPPLHTIYVDIKESALDRQFYTADTRLLRHLVVAGRNLTKIEVGAFATIRGFRVRIEIHNSSIEEFPSRIFDTLTGISILSLSLTDNKLTTFNPFQSTVAPAVNQHGTILHSLELKNNPIKCDCQFKWMDDFIRVTKFLSDHHISHDFDKVECADAQSSNLESFASAANELFSYKTKMTLLSKSEDFGLECAVKYSNPLKPLIYVLMLVCLSYL,not soluble
12,MGSDKIHHHHHHMVIDSIRSSSTGPRDAPGKRLAVGISLFARDGQAIWENGIHQNIAFLAMMLKQSDRIGPVYFLNGGDAKALPAGLDLGGLDVPLVQPRDVSHALDVVIEMGAQLPVDWLKHMKALGKKLVVCFVGHTYSGLTETPMFNRPSGHIFNGGPFDEVWILPKSEKIDAPLLRTLTRAPVHVVPHIWSPYFIERRARELEAAGLRFGYAPGRAKWRLSILEPNISVVKTCHYPMLAADEFHRAQPDAVEHLFVVNSLHMKEHPTFVHFANSLDLVREHKATFEPRIDLPSFLAQHGDAVISHQWENPQNYLYYDVLYGGYPLVHNSPMLGDAGYYYPEFDSAAGGRALQHAWRHHDAHLDDYRRHADALLQAVSIDNRRNLDAYVARLFA,not soluble
13,MGSDKIHHHHHHMTAAAATTAGATGGASRRPADEAIAADARALSEQLKAMRDRLFAPTAMKTLRSFTSGEAAKLIGVSDGYLRQLSLAGEGPQPDTGAGGRRSYSLSDINALRRHLAEQAIAKGNGAKARGYLKWRDAARSEHLQVISVTNFKGGSGKTTSSVHLAQYLALTGHRVLAVDLDPQASLSALFGYQPELDLTGNDTLYGAIRYDAEARPLKDIIRKTYFDGLDLVPGNLELQEFEHTTPQALSARQSGADAGPLFFARVQAALASVADDYDVVVIDCPPQLGYLTLSALCASTSVIVTVHPQMLDVASMNQFLYMTSDLLSVVRDAGGELNFDFLRYLVTRFEPNDGPQAQIVGFMRSLFGDRVLTSAMVKSTAISDAGLTKQTLYEVGRENFTRATYDRAIESLNAVNGEIEALIHAAWGR,not soluble

# — the DeepSol protein solubility set
